According to PMC11198818, “Positive charges promote the recognition of proteins by the chaperone SlyD from Escherichia coli” (PLOS ONE, 2024):
Where a chain is given by its changes, count along the chain named.

Tests used:
Test in all cases: ITC; VP-ITC (MicroCal), 30°C, 10 mM potassium phosphate buffer pH 7.6 or 7.8; SlyD or its variant 30 uM in the calorimetric cell, HiPIP precursor (RR-HiPIP) injected: 100 uM, 2x 22 injections of 10 uL (Fig 4); 200 uM, 23 injections of 10 uL (Fig 3)
Settings in all cases: both partners purified
[1] = target: T1, SlyD E113A, C-terminally hexahistidine-tagged (E. coli, UniProt P0A9K9 1-196, E113A)
T1 construct: FKBP-type peptidyl-prolyl cis-trans isomerase SlyD, E. coli; the tag is fused to the C-terminal domain; not shown: His6, C-terminal, kept
T1 sequence: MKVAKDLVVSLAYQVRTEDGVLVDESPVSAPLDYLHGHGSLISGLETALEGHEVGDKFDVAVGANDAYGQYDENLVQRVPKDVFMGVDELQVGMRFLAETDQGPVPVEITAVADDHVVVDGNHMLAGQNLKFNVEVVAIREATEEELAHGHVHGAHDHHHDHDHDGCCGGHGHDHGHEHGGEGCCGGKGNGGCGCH

[2] = target: T2, SlyD Y68S, C-terminally hexahistidine-tagged (E. coli, UniProt P0A9K9 1-196, Y68S)
T2 construct: FKBP-type peptidyl-prolyl cis-trans isomerase SlyD, E. coli; the tag is fused to the C-terminal domain; not shown: His6, C-terminal, kept
T2 sequence: T1 sequence with Y68S, A113E

[3] = target: T3, SlyD E73A, C-terminally hexahistidine-tagged (E. coli, UniProt P0A9K9 1-196, E73A)
T3 construct: FKBP-type peptidyl-prolyl cis-trans isomerase SlyD, E. coli; the tag is fused to the C-terminal domain; not shown: His6, C-terminal, kept
T3 sequence: T1 sequence with E73A, A113E

[4] = target: T4, SlyD E108A, C-terminally hexahistidine-tagged (E. coli, UniProt P0A9K9 1-196, E108A)
T4 construct: FKBP-type peptidyl-prolyl cis-trans isomerase SlyD, E. coli; the tag is fused to the C-terminal domain; not shown: His6, C-terminal, kept
T4 sequence: T1 sequence with E108A, A113E

[5] = target: T5, SlyD D101A, C-terminally hexahistidine-tagged (E. coli, UniProt P0A9K9 1-196, D101A)
T5 construct: FKBP-type peptidyl-prolyl cis-trans isomerase SlyD, E. coli; the tag is fused to the C-terminal domain; not shown: His6, C-terminal, kept
T5 sequence: T1 sequence with D101A, A113E

[6] = target: T6, SlyD F84N, C-terminally hexahistidine-tagged (E. coli, UniProt P0A9K9 1-196, F84N)
T6 construct: FKBP-type peptidyl-prolyl cis-trans isomerase SlyD, E. coli; the tag is fused to the C-terminal domain; not shown: His6, C-terminal, kept
T6 sequence: T1 sequence with F84N, A113E

[7] = target: T7, SlyD F96G, C-terminally hexahistidine-tagged (E. coli, UniProt P0A9K9 1-196, F96G)
T7 construct: FKBP-type peptidyl-prolyl cis-trans isomerase SlyD, E. coli; the tag is fused to the C-terminal domain; not shown: His6, C-terminal, kept
T7 sequence: T1 sequence with F96G, A113E

B1: HiPIP precursor (RR-HiPIP) from Allochromatium vinosum (natural protein)
chain: MSDKPISKSRRDAVKVMLGTAAAIPMINLVGFGTARASAPANAVAADDATAIALKYNQDATKSERVAAARPGLPPEEQHCANCQFMQADAAGATDEWKGCQLFPGKLINVNGWCASWTLKAG
modifications: HiPIP precursor; fully folded, [4Fe-4S] cluster presumed; signal peptide retained
- Kd [1]: 0.49 ± 0.07 µM
- stoichiometry N [1]: 0.616 ± 0.008
- stoichiometry N [2]: 0.462 ± 0.003
- Kd [3]: 0.32 ± 0.02 µM
- stoichiometry N [3]: 0.616 ± 0.003
- stoichiometry N [4]: 0.569 ± 0.015
- stoichiometry N [5]: 0.604 ± 0.012
- Kd [6]: 6.62 ± 0.2 µM
- stoichiometry N [6]: 0.532 ± 0.004
- Kd [7]: 5.65 ± 0.3 µM
- stoichiometry N [7]: 0.575 ± 0.007
